The nanobody polyreactivity screen of Harvey et al. (2022)

Test: yeast display, Sf9 membrane polyspecificity reagent, FACS + sequencing; frameworks hold sequencing errors
Summary of the method: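 Sorting gates, low and high (top ~1%), were placed on anti-HA fluorescence to track expression and on streptavidin fluorescence to track reagent binding. A clone's polyreactivity label is taken from the gate it came out of. The reagent was 10% biotinylated, detergent-solubilized Sf9 membrane, applied for 1 hour at 4 °C to galactose-induced yeast display cells.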

Sequence	polyreactivity (PSR sort gate)
QVQLVESGGGLVQAGGSLRLSCAASGRIFSRNAMGRYSQAPGKERELVAAIRWRSGSTYYADSVKGRFTISRDNAKNTVYLQMNSLNPEDTAVYYCAASGPGYSRYTQYDSWGQGTQVTESS	high polyreactivity
QVQLVESGGGLVQAGGSLRLSCAASGRIFSRNTMGWYRQATGKEREFVAAISQSGGRTYYADSVKGRFTISRDNAKNNVYLQMNSLKPEDTAVYYCAARSRGYDIRYGYWGQGTQVTVSS	high polyreactivity
QVQLVESGGGLVQAGGSLRLSCAASGRIFSRYALGWYSPEPGKERELVAAIRSNGGRTYYADSVKGRFTISRDNAKNTVYLQMNSLKPEDTAVYYCAAAGGGKVSYRDYDYWGQGTQVTVSS	high polyreactivity
QVQLVESGGGLVQAGGSLRLSCAASGRIFSRYAMGLYRQAPGKERELVAAITWRGGSTYYADSVKGRFTISRDNAKNTVYLEMNSLKPEDSAVYYCAKYGSGGRQLRSDSWVQGTQVTVSS	high polyreactivity
QVQLVESGGGLVQAGGSLRLSCAASGRIFSRYAMGRYRQAPGKERELVAAITQSGTSTYYADSVKGRFTISRDNAKNTVYLQMNSLKPEDTAVYYCNAYRQYRYDYWGQGTQVTVSS	low polyreactivity
QVQLVESGGGLVQAGGSLRLSCAASGRIFSRYAMGWYRQAPGKERELVATISSGGGTYYADSVKGRFTISRDNAKNTVYLQMNSLKPEDTAVYYCAVQVWYGRYYYWGQGTQVTVSS	high polyreactivity
QVQLVESGGGLVQAGGSLRLSCAASGRIFSRYAMGWYRQAPGKERELVATITRRGGSTSYADSVKGRFTISRDNAKNTVYLQMNSLKPEDTAVYYCAAQSFYGIYYGQQDYDYWGQGTQVTVSS	high polyreactivity
QVQLVESGGGLVQAGGSLRLSCAASGRIFSRYTMGWYRQAPGKERELVAAISYSGGRTYYADSVKGRFTISRDNAKNTVYLQMYSLKPEDTAVYYCAAPRSVVGAYGFYYWGQGTQVTVSS	high polyreactivity
QVQLVESGGGLVQAGGSLRLSCAASGRIFSRYTMGWYRQAPGKERELVAGITRGGGSTYYADSVKGRFTISRDNAKNTVYLQMNSLKPEDTAVYYCAATFAYHDGDYWGQGTQVTVSS	low polyreactivity
QVQLVESGGGLVQAGGSLRLSCAASGRIFSSNAMGWYRQAPGKEREFVAAISWRTGSTYYADSVKGRFTISRDNAKNTVYLQMNSLKPEDTAVYYCAAVYWTFWGTIATRYDYWGQGTQVTVSS	high polyreactivity
QVQLVESGGGLVQAGGSLRLSCAASGRIFSSNAMGWYRQAPGKERELVAAITSGGSTYADSVKGRFTISRDNAKNTVYLQMNSLKPEDTAVYYCAKDGPGGGTRIYDYWGHGTQVTVSS	high polyreactivity
QVQLVESGGGLVQAGGSLRLSCAASGRIFSSYAMGWSRQAPGKERELVAAISSSGGNTYYADSVKGRFTISRDNAKNTVYLQMNSLKPEDTAVYYCNTRWVHRDWYDYWGQGTQVTVSS	high polyreactivity
QVQLVESGGGLVQAGGSLRLSCAASGRIFSSYAMGWYRQAPGKERELVAGITRGGSTYADSVKGRFTISRDNAKNTVYLQMNSLKPEDTAVYYCAADALIATPSWGKYNYWGQGTQVTVSS	high polyreactivity
QVQLVESGGGLVQAGGSLRLSCAASGRIFSSYAMGWYRQAPGKERELVAVISQRGGSTSYADSVKGRFTISRDNAKNTVYLQMNSLKPEDTAVYYCARRPGKGNNYWGQGTQVTVSS	high polyreactivity
QVQLVESGGGLVQAGGSLRLSCAASGRIFSSYTMGWYRQAPGKERELVAAISWRGGSTYYADSVKGRFTISRDNAKNTVYLQMNSLKPEDTAVYYCAADSRSDPGDYWGQGNQVTVSS	low polyreactivity
QVQLVESGGGLVQAGGSLRLSCAASGRIFSTNAMGWYRQAPGKERELVATIRTSGGSTYYADSVKGRFTISRDNAKNTVYLQMNSLKPEDTAVYYCAARRFLHYTTYYGTGRYDYWGQGTQVTVSS	low polyreactivity
QVQLVESGGGLVQAGGSLRLSCAASGRIFSTNAMGWYRQAPWKERELVASISKSGGSTYYADSVKGRFTISRDNAKNTVYLQMNSLKPEDTAVYYCAASSYSTSYIRGDYWGQGTQVTVSS	low polyreactivity
QVQLVESGGGLVQAGGSLRLSCAASGRIFSTYAMGWYRQAPGKERELVAAINSIGGRTYYADSVKGRFTISRDNAKNTVYLQMNSLKPEDTAVYYCAAGYRTRRGLGYYYWGQGTQVTVSS	high polyreactivity
QVQLVESGGGLVQAGGSLRLSCAASGRIFSTYTMGWYSQAPGKDRELVARSSWSAGRTYYADSVKGRFTISRDNAKNSVYLQMNSLKPEETAVYYCAADGYTQRGYDYWGQGTQVTVSS	high polyreactivity
QVQLVESGGGLVQAGGSLRLSCAASGRIFSYNAMGWYRQAPGKERELFAAISSDGSTYYADSVKGRFTISRDNAKNTVYLEMNSLKPEDTAVYYCAARQVVWFVYTTAQVGSYKVNYWGQGTQVNVSS	low polyreactivity
QVQLVESGGGLVQAGGSLRLSCAASGRIFSYNAMGWYRQAPGKERELVASISYSGTSTYYADSVKGRFTISRDNAKKTVYLQMNSLKPEDTAVYYCAALSRRRFGYWGQGTQVTVSS	high polyreactivity

Sequence	polyreactivity (PSR sort gate)
QVQLVESGGGLVQAGGSLRLSCAASGRIFSYNTLMRWYRQAPGKERELVAAITFSSASTYYADSVKGRFTISRDNAKNTVYLQMNSLKPEDTAVYYCAAAIRSQSSKYYYWGQGTQVTVSS	low polyreactivity
QVQLVESGGGLVQAGGSLRLSCAASGRIFSYYAMGWYRQAPGKEREFVATITYAGGSTYYADSVKGRFTISRDNAKNTVYFQMNSLKPEDTAVYYCAARGYSYRGWRMDYWGQGTQVTVSS	high polyreactivity
QVQLVESGGGLVQAGGSLRLSCAASGRIFSYYAMGWYRQAPGKERELVAAINSDGSTDYADSVKGRFTISRDNAKNTVYLQMNSLKPEDTAVYYCAKVWSLGPTGFRAYVRVWYYYWGVGTQVTVSS	low polyreactivity
QVQLVESGGGLVQAGGSLRLSCAASGRIFSYYAMGWYRQAPGKERELVAAISWNGGSTYYADSVKGRFTISRDNAKNTVYLQMNSLKPEDTAVYYCIRLGYRTGYERDYWGQGTQVTVSS	high polyreactivity
QVQLVESGGGLVQAGGSLRLSCAASGRIFSYYAMGWYRQAPGKERELVAAISWSGGSTYYADSVKGRFTISRDNAKNTVYLQMNSLKPEDTAVYYCAAGVHWDRGDYWGQGTQVTVSS	low polyreactivity
QVQLVESGGGLVQAGGSLRLSCAASGRIFSYYAMGWYRQAPGKERELVAAITSGGRTNYADSVKGRFTISRDNAKNTVYLQMNSLNPEDTAVYYCAAIFGYGSTWCRWGKDDYWGQGTQVTVSS	high polyreactivity
QVQLVESGGGLVQAGGSLRLSCAASGRIFSYYARGWYRQAPGKERELVATINSGGSTNYADSVKGRFTISRDNAKNTVYLLMNSLKPEDTAVYYCAASPVWWYDYWGQGTQVTVSS	low polyreactivity
QVQLVESGGGLVQAGGSLRLSCAASGRIFSYYTMGWYRQAPGKERELVAAITSGDSTNYADSVKGRFTISRDNAKNTVYLQMNSLKPEDNAVYYCNARYSWWRSRVGSSHRPDGYWGQGTQVTVSS	high polyreactivity
QVQLVESGGGLVQAGGSLRLSCAASGRIFTAYDMGWYRQAPGKERELVAAITRSSGSTYYADSVKGRFTISRDNAKNTVYLQMNSLKGEDTAVYYCATDGEFWGYDSWGQGTQVTVSS	low polyreactivity
QVQLVESGGGLVQAGGSLRLSCAASGRIFTAYYAMGWYRQAPGKERELVASISSSGTYTYADSVKGRFTISRDNAKNTVYLQMNSLKPEDTAVYYCATRKLRTRRYDYGYCGQGTQVTVSS	low polyreactivity
QVQLVESGGGLVQAGGSLRLSCAASGRIFTDNAMGWYRQAPGKERELVAAISWDGSSTSYADSVKGRFTISRDNAKNTVYLQMNSLKPEDTAVYDCAAVLYSGLYWYRLDYWGQGTRVTVSS	low polyreactivity
QVQLVESGGGLVQAGGSLRLSCAASGRIFTFYAMGWYRQAPGKERELVAVITTGTSTTYADSVKGRVTISRDNAKNTVYLQMNSLKPEDTAVYYCAVESWSRVQGWLAHNYDYWGQGTQVTVSS	low polyreactivity
QVQLVESGGGLVQAGGSLRLSCAASGRIFTGNAMGWNRQAPGKERELVAAISASGSSTYYADSVKGRFTISRDNAKNTVYLQMNRLKPDDTAVYYCAADGWYGYYYWGQGTQVTVSS	high polyreactivity
QVQLVESGGGLVQAGGSLRLSCAASGRIFTGNAMGWSRQAPGKERELVAAISASGSSSYYADSVKGRFTISRDNAKNTVYLQMNSLNPEDTAVYYCAAEGWYCYYYWGQGTQVTVSS	high polyreactivity
QVQLVESGGGLVQAGGSLRLSCAASGRIFTGNAMGWYRQAPGKERELVAAITGRGGNTYYADSVKGRFTISRDNAKNTVYLQMNSLKPEDTAVYYCAKVFFHTPIVPEFEYWGQGTQVTVSS	low polyreactivity
QVQLVESGGGLVQAGGSLRLSCAASGRIFTGNAMGWYRQAPGKERELVASITYNGGRTYYADSVKGRFTISRDKAKNTVYLPMNRLKPEDTAVYYCNAGDYGFGYEYWGQGTQVTVSS	low polyreactivity
QVQLVESGGGLVQAGGSLRLSCAASGRIFTGYAMGWYRQAPGKEREFVAAITGRGGSTYYADSVKGRFTISRDNAKNTVYLLMNSLKPEDTAVYYCNALPRSPWYYRGDYWGQGTQVTVSS	high polyreactivity
QVQLVESGGGLVQAGGSLRLSCAASGRIFTHNAMGWYIQAPGKERELVAAITSGGRTTYADSVKGRFTISRENAKNTVYLQMISLKPVDTAVYYCAADDLLDYDYWGQGTQVTVSS	low polyreactivity
QVQLVESGGGLVQAGGSLRLSCAASGRIFTIYAMGWSRQAPGKERELVATISRRGGSTYYADSVKGRFTISRDNAKNTVYLKMNSLKPEDSAVYYFAADSVITWWAYYYWGQGTQVTVSS	high polyreactivity
QVQLVESGGGLVQAGGSLRLSCAASGRIFTIYAMGWYRQAPGKERELVARITRGTSTYADSVKGRFTISRDNAKNTVYLQMNSLKPEDTAVYYCAADPTDTSLGDYWGQGTQVTVSS	high polyreactivity
